Reference: article PMC4490337, “Revisiting the intraperoxisomal pathway of mammalian PEX7” (Scientific Reports, 2015)

T1: PEX7 (in vitro synthesized) (human, UniProt O00628 1-323, unlabeled in the native-PAGE analyses; [35S]methionine label in the import/export assays)
T1 sequence (looked up): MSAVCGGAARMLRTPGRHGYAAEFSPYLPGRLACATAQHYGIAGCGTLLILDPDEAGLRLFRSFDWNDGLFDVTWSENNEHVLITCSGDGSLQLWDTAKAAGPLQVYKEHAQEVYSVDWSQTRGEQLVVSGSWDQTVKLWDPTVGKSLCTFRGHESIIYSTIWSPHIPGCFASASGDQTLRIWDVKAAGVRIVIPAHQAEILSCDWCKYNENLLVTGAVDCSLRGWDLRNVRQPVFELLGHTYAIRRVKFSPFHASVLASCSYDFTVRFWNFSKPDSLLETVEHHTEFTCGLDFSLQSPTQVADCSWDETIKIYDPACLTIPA


How the values were obtained:
[1] = molecular target: T1, PEX7 (in vitro synthesized); experiment: cell-based or functional assay
[2] = molecular target: T1, PEX7 (in vitro synthesized); experiment: native gel or EMSA; chase of the pre-assembled trimeric ΔC1PEX5L-PEX7-35S-prePHYH complex with excess recombinant prePHYH (100 ng) at 23 °C, aliquots over 8 h; band intensity against time; conditions: partners not purified

Binder | amount of 35S-labeled PEX7 exported from peroxisomes in 15 min after pre-incubation with ΔC1PEX5L, against pre-incubation with export-incompetent ΔC1PEX5L(C11A) [1] [fold] | half-life of prePHYH in the trimeric complex (with m3) [2] [h]
ΔC1PEX5L, recombinant protein comprising amino acid residues 1-324 of the large isoform of human PEX5 (domain or fragment) not shown | ~2 | –
radiolabeled pre-phytanoyl-CoA hydroxylase (35S-prePHYH) (natural protein, human, UniProt O14832 1-338, looked up, [35S]methionine label, human phytanoyl-CoA hydroxylase, precursor form with the PTS2 (prePHYH); cDNA amplified with primers from the start to the stop codon and cloned into pGEM4 (pGEM4-prePHYH); also called radiolabeled prePHYH; source: in vitro translated (TNT T7 quick coupled kit, rabbit reticulocyte lysate), not purified) MEQLRAAARLQIVLGHLGRPSAGAVVAHPTSGTISSASFHPQQFQYTLDNNVLTLEQRKFYEENGFLVIKNLVPDADIQRFRNEFEKICRKEVKPLGLTVMRDVTISKSEYAPSEKMITKVQDFQEDKELFRYCTLPEILKYVECFTGPNIMAMHTMLINKPPDSGKKTSRHPLHQDLHYFPFRPSDLIVCAWTAMEHISRNNGCLVVLPGTHKGSLKPHDYPKWEGGVNKMFHGIQDYEENKARVHLVMEKGDTVFFHPLLIHGSGQNKTQGFRKAISCHFASADCHYIDVKGTSQENIEKEVVGIAHKFFGAENSVNLKDIWMFRARLVKGERTNL | – | 3.06
